# Measurements as given in publication PMC4245953, “Hug1 is an intrinsically disordered protein that inhibits ribonucleotide reductase activity by directly binding Rnr2 subunit” (Nucleic Acids Research, 2014).
# T1: (His)6-Rnr2-Rnr4 complex (S. cerevisiae, UniProt P09938 1-399; P49723 1-345)
# T1 construct: Rnr2, S. cerevisiae; Rnr4, S. cerevisiae; also called Rnr2/4; source: E. coli BL21 (DE3) gold, co-expressed; purified (Ni-NTA, anion exchange) for NMR; 'purified' by the text or 'soluble extracts' by the legend in the pull-down
# T1 sequence (looked up) 1: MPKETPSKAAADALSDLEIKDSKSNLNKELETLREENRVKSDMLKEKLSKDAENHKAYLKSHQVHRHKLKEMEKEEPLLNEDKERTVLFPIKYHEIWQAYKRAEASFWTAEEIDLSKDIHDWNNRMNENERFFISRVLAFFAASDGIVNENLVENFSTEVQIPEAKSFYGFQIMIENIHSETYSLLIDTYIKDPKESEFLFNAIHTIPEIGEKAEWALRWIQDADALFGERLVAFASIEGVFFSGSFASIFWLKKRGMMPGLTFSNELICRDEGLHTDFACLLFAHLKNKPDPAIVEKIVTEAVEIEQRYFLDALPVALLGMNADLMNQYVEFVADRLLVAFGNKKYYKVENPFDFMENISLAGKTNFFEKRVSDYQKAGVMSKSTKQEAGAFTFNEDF
# T1 sequence (looked up) 2: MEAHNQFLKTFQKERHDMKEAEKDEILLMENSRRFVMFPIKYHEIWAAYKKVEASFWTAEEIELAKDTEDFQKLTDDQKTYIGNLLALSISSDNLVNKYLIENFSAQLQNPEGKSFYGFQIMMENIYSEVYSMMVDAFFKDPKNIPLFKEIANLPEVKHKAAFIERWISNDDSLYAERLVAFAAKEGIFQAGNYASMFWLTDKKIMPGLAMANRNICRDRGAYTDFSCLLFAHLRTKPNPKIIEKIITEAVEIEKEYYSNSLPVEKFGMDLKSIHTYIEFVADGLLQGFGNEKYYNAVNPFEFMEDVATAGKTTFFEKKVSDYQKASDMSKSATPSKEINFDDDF
# How the values were obtained:
# [1] = target: Rnr2-Rnr4 (Saccharomyces cerevisiae) (UniProt P09938); details: cited from earlier work
# [2] = target: RNR R2 (Escherichia coli) (UniProt P69924); details: cited from earlier work
# [3] = target: RNR R2 (Mus musculus) (UniProt P11157); details: cited from earlier work
# [4] = target: Rnr1 (Saccharomyces cerevisiae) (UniProt P21524); details: cited from earlier work
# [5] = target: Cdc22 (R1) (Schizosaccharomyces pombe) (UniProt P36602); details: cited from earlier work
# [6] = target: T1, (His)6-Rnr2-Rnr4 complex; test: NMR titration; 1H-15N HSQC of 15N-Hug1 with increasing unlabeled (His)6-Rnr2-Rnr4; Tris-d11 10 mM pH 7.5; 22°C (50 uM Hug1, ratios 1:0.125 to 1:1.6, global fit of four peaks, 1:1 model) and 9°C (16.4 uM Hug1, ratio 1:2); details: both partners purified
# Chain of RNR R1 (from UniProt P07742) (P07742 whole entry): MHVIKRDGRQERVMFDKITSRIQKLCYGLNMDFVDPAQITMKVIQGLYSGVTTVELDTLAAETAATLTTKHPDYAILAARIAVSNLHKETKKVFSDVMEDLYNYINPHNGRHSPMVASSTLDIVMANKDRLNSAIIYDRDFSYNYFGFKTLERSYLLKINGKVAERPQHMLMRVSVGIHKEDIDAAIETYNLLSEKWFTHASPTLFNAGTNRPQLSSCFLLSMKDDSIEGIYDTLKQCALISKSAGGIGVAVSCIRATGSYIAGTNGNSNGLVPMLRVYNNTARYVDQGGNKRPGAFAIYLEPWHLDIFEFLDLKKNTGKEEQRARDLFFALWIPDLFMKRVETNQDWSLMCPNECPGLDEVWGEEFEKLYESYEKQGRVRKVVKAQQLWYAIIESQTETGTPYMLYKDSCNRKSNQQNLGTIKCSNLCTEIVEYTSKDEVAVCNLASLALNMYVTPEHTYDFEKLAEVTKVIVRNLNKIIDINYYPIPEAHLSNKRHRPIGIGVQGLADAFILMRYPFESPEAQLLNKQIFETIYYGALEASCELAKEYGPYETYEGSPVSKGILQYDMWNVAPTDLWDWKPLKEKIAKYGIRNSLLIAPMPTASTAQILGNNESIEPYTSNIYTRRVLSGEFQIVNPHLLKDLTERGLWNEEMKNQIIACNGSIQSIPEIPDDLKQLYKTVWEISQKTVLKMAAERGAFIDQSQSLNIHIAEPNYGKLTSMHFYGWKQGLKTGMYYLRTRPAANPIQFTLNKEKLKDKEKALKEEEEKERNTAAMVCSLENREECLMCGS
# Chain of Spd1 (Q10585 whole entry): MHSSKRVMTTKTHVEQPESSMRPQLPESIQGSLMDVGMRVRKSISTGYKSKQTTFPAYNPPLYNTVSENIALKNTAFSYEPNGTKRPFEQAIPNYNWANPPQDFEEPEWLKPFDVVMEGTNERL
# Chain of Cdc22 (R1) (Schizosaccharomyces pombe) (P36602 whole entry): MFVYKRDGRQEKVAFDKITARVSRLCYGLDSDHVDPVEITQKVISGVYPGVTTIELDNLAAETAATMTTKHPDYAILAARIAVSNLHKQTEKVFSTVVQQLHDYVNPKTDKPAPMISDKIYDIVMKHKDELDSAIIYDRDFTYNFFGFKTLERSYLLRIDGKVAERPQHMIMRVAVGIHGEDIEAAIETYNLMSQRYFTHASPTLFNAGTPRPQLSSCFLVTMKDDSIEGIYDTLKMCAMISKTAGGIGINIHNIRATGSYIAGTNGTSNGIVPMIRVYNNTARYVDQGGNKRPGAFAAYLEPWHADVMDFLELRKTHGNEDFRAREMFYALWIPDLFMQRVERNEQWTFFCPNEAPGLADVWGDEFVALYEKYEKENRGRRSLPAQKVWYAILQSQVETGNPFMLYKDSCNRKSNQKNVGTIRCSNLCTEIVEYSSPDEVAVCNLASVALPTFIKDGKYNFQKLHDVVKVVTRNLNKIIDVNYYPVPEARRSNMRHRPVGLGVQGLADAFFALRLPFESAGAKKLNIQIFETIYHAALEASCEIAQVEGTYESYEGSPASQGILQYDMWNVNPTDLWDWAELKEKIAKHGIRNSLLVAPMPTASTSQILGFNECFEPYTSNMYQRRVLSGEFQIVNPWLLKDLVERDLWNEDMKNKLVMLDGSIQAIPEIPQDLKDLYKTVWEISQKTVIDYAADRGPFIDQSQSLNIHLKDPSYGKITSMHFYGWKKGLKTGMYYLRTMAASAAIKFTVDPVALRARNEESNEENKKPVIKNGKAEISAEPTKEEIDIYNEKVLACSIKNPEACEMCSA
# Chain of RNR R1 (from UniProt P00452) (P00452 whole entry): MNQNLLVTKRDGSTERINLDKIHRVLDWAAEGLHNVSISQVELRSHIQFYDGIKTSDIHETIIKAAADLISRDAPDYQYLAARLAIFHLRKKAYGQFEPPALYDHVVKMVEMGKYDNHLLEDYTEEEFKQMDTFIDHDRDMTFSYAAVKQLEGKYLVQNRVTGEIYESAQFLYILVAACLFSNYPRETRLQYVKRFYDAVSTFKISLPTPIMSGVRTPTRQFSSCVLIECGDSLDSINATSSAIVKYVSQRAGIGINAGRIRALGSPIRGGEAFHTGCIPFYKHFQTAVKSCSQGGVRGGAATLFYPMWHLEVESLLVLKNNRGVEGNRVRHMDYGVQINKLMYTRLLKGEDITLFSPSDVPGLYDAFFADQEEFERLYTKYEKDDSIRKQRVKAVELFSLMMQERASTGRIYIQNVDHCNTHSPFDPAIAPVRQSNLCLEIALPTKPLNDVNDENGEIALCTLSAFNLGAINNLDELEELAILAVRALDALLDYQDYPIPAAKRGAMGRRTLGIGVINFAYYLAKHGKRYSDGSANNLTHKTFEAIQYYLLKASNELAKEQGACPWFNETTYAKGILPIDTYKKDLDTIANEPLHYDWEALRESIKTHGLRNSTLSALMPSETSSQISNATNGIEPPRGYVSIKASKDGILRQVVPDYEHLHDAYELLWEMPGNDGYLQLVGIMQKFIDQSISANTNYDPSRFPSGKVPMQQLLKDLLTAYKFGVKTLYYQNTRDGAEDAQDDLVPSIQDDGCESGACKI
# Chain of RNR R2 (Escherichia coli) (P69924 2-376): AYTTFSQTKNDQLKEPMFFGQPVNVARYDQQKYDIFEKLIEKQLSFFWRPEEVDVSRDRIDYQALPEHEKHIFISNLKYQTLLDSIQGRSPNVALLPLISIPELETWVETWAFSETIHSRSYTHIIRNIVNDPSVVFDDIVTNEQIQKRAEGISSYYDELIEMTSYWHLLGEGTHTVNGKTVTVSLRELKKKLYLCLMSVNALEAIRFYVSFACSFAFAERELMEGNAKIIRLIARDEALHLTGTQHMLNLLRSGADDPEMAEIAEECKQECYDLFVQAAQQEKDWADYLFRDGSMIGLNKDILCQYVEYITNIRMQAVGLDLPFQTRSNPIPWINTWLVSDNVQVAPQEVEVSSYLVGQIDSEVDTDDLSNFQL
# Chain of Sml1 (Q04964 whole entry): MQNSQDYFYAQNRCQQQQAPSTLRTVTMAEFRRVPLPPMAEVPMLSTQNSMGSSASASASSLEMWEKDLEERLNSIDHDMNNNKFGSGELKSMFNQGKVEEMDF
# Chain of Rnr1 (Saccharomyces cerevisiae) (P21524 whole entry): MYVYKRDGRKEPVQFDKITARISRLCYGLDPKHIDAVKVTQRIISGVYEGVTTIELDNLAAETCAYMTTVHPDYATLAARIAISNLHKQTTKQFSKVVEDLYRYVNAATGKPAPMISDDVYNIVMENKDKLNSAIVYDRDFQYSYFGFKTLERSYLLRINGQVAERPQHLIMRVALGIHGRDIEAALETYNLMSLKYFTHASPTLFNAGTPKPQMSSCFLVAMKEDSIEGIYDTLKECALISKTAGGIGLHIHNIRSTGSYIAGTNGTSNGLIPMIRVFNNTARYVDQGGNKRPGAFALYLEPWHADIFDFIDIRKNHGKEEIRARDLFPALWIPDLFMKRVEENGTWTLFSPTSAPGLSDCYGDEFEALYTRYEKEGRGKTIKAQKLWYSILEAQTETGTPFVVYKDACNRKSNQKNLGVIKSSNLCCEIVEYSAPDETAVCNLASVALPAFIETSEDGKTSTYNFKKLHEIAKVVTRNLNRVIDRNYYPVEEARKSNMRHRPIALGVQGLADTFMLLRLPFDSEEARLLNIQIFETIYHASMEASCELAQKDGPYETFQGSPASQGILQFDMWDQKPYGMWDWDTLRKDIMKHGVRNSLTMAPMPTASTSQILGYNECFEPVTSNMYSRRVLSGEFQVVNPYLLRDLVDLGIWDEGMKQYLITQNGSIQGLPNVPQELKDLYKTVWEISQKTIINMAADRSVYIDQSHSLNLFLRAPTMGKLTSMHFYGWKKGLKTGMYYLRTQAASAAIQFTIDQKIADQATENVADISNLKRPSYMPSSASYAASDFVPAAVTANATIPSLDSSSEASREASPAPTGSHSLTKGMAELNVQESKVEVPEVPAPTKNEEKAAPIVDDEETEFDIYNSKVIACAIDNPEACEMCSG
# Chain of Dif1 (O13577 whole entry): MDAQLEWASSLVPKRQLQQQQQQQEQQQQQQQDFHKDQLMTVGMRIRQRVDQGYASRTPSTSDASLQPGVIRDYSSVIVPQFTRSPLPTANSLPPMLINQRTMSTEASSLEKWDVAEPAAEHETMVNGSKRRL
# Chain of RNR R2 (Mus musculus) (P11157 whole entry): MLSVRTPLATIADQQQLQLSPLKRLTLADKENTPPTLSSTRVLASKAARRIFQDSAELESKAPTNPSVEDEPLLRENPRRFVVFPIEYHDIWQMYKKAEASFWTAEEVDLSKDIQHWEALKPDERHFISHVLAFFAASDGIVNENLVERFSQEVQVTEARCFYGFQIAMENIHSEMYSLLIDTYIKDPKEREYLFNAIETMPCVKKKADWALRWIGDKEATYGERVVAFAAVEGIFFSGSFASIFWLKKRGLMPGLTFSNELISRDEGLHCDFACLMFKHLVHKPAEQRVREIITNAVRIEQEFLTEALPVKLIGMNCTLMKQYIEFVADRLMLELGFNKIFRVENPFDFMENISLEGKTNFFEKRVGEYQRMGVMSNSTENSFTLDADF
molecule,measurement,setting,value
Dif1 (from UniProt O13577),Kd,[1],600 nM
RNR R1 (from UniProt P00452),Kd,[2],100 nM
RNR R1 (from UniProt P07742),Kd,[3],100 nM
Sml1 (from UniProt Q04964),Kd,[4],400 nM
Spd1 (from UniProt Q10585),Kd,[5],2400 nM
"Recombinant Hug1 (tags cleaved), 15N-labeled (natural protein, S. cerevisiae, UniProt Q6Q5K6 1-68, looked up, also: uniformly 15N-labeled, Hug1, S. cerevisiae, released from (His)6-GST-TEV site-Hug1 by TEV protease; calculated mass 7.5 kDa; protein of 68 residues; also called 15N-Hug1; purified recombinant Hug1; source: E. coli BL21 (DE3) gold, purified (Glutathione-agarose, TEV cleavage, Ni-NTA flow-through); not shown: His6, N-terminal, cleaved; GST, N-terminal, cleaved) MTMDQGLNPKQFFLDDVVLQDTLCSMSNRVNKSVKTGYLFPKDHVPSANIIAVERRGGLSDIGKNTSN",Kd,[6],1600 ± 600 nM
